Assay results reported in US20200376013.

Tested on: SDM-145

hMMP-9, sequence (chain, as listed by the source): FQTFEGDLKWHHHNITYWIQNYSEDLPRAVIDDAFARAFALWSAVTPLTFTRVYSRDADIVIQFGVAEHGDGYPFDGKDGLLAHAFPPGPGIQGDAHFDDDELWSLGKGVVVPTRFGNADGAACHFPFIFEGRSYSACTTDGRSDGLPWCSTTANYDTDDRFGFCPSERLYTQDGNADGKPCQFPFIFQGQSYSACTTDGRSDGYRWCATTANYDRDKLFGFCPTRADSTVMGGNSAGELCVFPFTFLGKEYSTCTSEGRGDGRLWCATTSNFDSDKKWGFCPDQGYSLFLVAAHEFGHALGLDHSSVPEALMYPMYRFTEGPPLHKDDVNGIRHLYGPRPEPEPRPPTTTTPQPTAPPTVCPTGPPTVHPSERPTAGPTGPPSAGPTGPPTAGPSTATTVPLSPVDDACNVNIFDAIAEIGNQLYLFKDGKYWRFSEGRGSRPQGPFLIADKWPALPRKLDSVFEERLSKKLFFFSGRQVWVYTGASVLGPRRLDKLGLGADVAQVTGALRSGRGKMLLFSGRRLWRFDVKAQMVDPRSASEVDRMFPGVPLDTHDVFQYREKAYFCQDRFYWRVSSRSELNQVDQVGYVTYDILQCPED

Row | Substance | cleavage followed by LC-MS with fluorescence detection (ex 480 nm, em 560 nm), sodium acetate buffer pH 5.0, 37 C | cleavage followed by LC-MS with fluorescence detection (ex 480 nm, em 560 nm), TCNB buffer pH 7.5, 37 C
1 | Cathepsin B, human liver | The cleavage reaction was complete after 17 hour. | –
2 | hMMP-9 | – | The cleavage reaction was complete after 17 hour.
